Here are results for 167 variants from the Human Domainome abundance scans (Beltran et al. 2025).

± gives the uncertainty stated by the source.

The labels stand for the following.
B1: Nanos homolog 2, residues 63 to 115; numbered along this chain, P60321 (parent)
chain: CNFCKHNGESRHVYSSHQLKTPDGVVVCPILRHYVCPVCGATGDQAHTLKYCP

The data set covers variants of B1. Nature of the data set: abundance fitness (aPCA) (normalised: wild type 0, dead -1); higher = more abundant; growth selection in yeast, the domain comes from the species named. To be noted: Homo sapiens.
Take L31V: the abundance fitness was -0.284 ± 0.066.

Take R11P: the abundance fitness stood at 0.172 ± 0.16. In the case of R11V it was -0.007 ± 0.091. In the case of R11H it was -0.039 ± 0.19.

As for Y14L, the abundance fitness was -0.125 ± 0.071. Take Y14W: the abundance fitness stood at 0.208 ± 0.12.

Regarding Y14Q, the abundance fitness was found to be 0.002 ± 0.11. In the case of P29Y it was -0.721 ± 0.29; in that of P29D, -0.543 ± 0.15; in that of P29S, -0.65 ± 0.12. In the case of L19Q it was -0.329 ± 0.22; in that of L19P, -0.508 ± 0.15; in that of L19C, -0.093 ± 0.15. As for L19N, the abundance fitness is -0.277 ± 0.42. In the case of H12M, the abundance fitness was -0.012 ± 0.078.

In the case of H12K, the abundance fitness is 0.096 ± 0.14. The value for H12Q was -0.013 ± 0.11; that for H12G was 0.056 ± 0.084. The value for T48L was -0.224 ± 0.088. For the variant T48K, the abundance fitness was found to be 0.052 ± 0.12. Take Y51K: the abundance fitness is 0.024 ± 0.12. In the case of Y51P it was -0.287 ± 0.074; in that of Y51R, -0.258 ± 0.05; in that of Y51C, -0.21 ± 0.11. Take P22I: the abundance fitness was -0.158 ± 0.13. The value for R32H was -0.368 ± 0.16. As for R32P, the abundance fitness is -0.715 ± 0.14.

Consider R32I, for which the abundance fitness is -0.434 ± 0.064. As to R32T, the abundance fitness was -0.204 ± 0.065. In the case of V25Y it was -0.092 ± 0.096; in that of V25Q, -0.05 ± 0.075; in that of V25W, -0.459 ± 0.13.

Turning to V25T, the abundance fitness came out at 0.004 ± 0.071. Take V25F: the abundance fitness was determined as 0.166 ± 0.17.

V25C: the abundance fitness was -0.001 ± 0.089.

Regarding V25K, the abundance fitness was determined as 0.085 ± 0.083. For the variant G40M, the abundance fitness is -0.107 ± 0.098. Consider G40R, for which the abundance fitness came out at 0.021 ± 0.066. Turning to G40E, the abundance fitness stood at 0.13 ± 0.15. Regarding G40Y, the abundance fitness was -0.168 ± 0.15.

As for G40C, the abundance fitness is -0.023 ± 0.073.

In the case of C28Y, the abundance fitness is -0.815 ± 0.28. C28R: the abundance fitness is -0.752 ± 0.09.

Take C28G: the abundance fitness is -0.535 ± 0.058. In the case of C28T it was -0.586 ± 0.16; in that of C28A, -0.714 ± 0.12.

As to C28E, the abundance fitness was -0.733 ± 0.13.

Regarding C28D, the abundance fitness was -0.643 ± 0.21. For C28F, the abundance fitness was -0.91 ± 0.18. The value for C28V was -0.852 ± 0.17; that for G43Y was -0.703 ± 0.11.

Turning to G43D, the abundance fitness was -0.125 ± 0.1.

Consider G43Q, for which the abundance fitness was -0.176 ± 0.081. As for G43T, the abundance fitness is -0.467 ± 0.079. For V13K, the abundance fitness was 0.113 ± 0.078.

Take V13H: the abundance fitness was -0.087 ± 0.22. With V13R, the abundance fitness was -0.06 ± 0.065. On to V13C, for which the abundance fitness was determined as 0 ± 0.07. For the variant L49N, the abundance fitness is -0.013 ± 0.14. For the variant L49S, the abundance fitness is -0.071 ± 0.097.

Take L49P: the abundance fitness was 0.026 ± 0.12.

For L49M, the abundance fitness stood at 0.148 ± 0.13. In the case of T42I, the abundance fitness is -0.342 ± 0.074. On to T42W, for which the abundance fitness is -0.37 ± 0.095. T42P: the abundance fitness is -0.895 ± 0.24. In the case of G24W it was -1.12 ± 0.27; in that of G24N, 0.113 ± 0.21; in that of G24P, -0.478 ± 0.16.

Take G24T: the abundance fitness was -0.563 ± 0.13. In the case of G24R it was -0.413 ± 0.092; in that of K5W, -0.4 ± 0.054. In the case of K5F it was -0.305 ± 0.11; in that of K5Y, -0.145 ± 0.08. As to K5T, the abundance fitness was -0.456 ± 0.097. As to K5G, the abundance fitness is -0.699 ± 0.05. Regarding N2A, the abundance fitness is -0.823 ± 0.054.

For N2M, the abundance fitness was -0.861 ± 0.16. In the case of N2H, the abundance fitness is -0.647 ± 0.12. For V26C, the abundance fitness is -0.032 ± 0.12.

On to V26P, for which the abundance fitness was -0.359 ± 0.17. The value for V26M was -0.292 ± 0.2; that for V26S was -0.322 ± 0.092. The value for V26N was -0.456 ± 0.17; that for V26F was -0.284 ± 0.14; that for V26L was -0.036 ± 0.083.

Regarding V26E, the abundance fitness is -0.574 ± 0.13. The value for A46W was -0.77 ± 0.22; that for A46S was -0.241 ± 0.13; that for A46H was -0.124 ± 0.28. In the case of A46R it was -0.322 ± 0.11; in that of A46V, -0.192 ± 0.1; in that of N7V, -0.364 ± 0.073. The value for N7R was -0.036 ± 0.083; that for N7G was -0.144 ± 0.1; that for N7K was 0.021 ± 0.085. On to N7S, for which the abundance fitness is -0.054 ± 0.061. In the case of N7L it was -0.311 ± 0.062; in that of N7H, -0.036 ± 0.13. The value for H47V was -0.628 ± 0.064; that for H47Y was -0.621 ± 0.23; that for H47A was -0.431 ± 0.11. With H47G, the abundance fitness was -0.643 ± 0.067.

D44Q: the abundance fitness was -0.25 ± 0.11.

D44H: the abundance fitness was -0.514 ± 0.23. Turning to D44L, the abundance fitness is -0.453 ± 0.084. In the case of A41L it was -0.032 ± 0.089; in that of A41W, -0.383 ± 0.14; in that of A41P, -0.593 ± 0.11.

Turning to A41V, the abundance fitness is -0.102 ± 0.068. The value for C1Y was -0.762 ± 0.4; that for F3V was -1.01 ± 0.1; that for F3W was -0.709 ± 0.13. The value for F3Y was -0.117 ± 0.11. The value for F3M was -1.06 ± 0.21; that for F3G was -1.2 ± 0.11; that for S15Q was 0.034 ± 0.11. As to S15P, the abundance fitness is -0.326 ± 0.13.

As to S15W, the abundance fitness was -0.333 ± 0.1. In the case of S15G it was 0.051 ± 0.098; in that of S15C, -0.158 ± 0.13.

As to S15I, the abundance fitness was -0.258 ± 0.1. The value for S16R was -0.135 ± 0.067; that for S16H was -0.287 ± 0.12; that for S16P was -0.459 ± 0.16. In the case of S16Y it was -0.489 ± 0.088. Turning to C36Q, the abundance fitness was -0.471 ± 0.22.

With C36M, the abundance fitness was -0.75 ± 0.094. As for C36G, the abundance fitness is -0.826 ± 0.086.

In the case of C36A, the abundance fitness was -0.416 ± 0.1. In the case of C36L it was -1 ± 0.11; in that of P37C, -0.34 ± 0.12; in that of P37Y, -0.305 ± 0.41. For P37Q, the abundance fitness turned out to be 0.324 ± 0.2. For the variant P37D, the abundance fitness turned out to be 0.07 ± 0.15. As for P37R, the abundance fitness is 0.088 ± 0.085. The value for C4H was -0.688 ± 0.22.

Consider C4V, for which the abundance fitness is -0.952 ± 0.088. The value for C4F was -0.423 ± 0.12. The value for C4M was -1 ± 0.22; that for H33N was 0.218 ± 0.093. With H33V, the abundance fitness worked out at 0.033 ± 0.069. The value for H33Y was -0.335 ± 0.11; that for H33D was 0.127 ± 0.1.

Consider H33W, for which the abundance fitness is -0.086 ± 0.09. In the case of H33C it was -0.013 ± 0.11; in that of Y34D, -0.32 ± 0.093. Turning to Y34V, the abundance fitness is -0.033 ± 0.073. In the case of Y34F it was -0.011 ± 0.091; in that of Y34C, -0.066 ± 0.06; in that of Y34W, -0.066 ± 0.12.

Turning to Y34G, the abundance fitness was -0.229 ± 0.051. Consider Y34L, for which the abundance fitness was 0.042 ± 0.068. For the variant K50Q, the abundance fitness is -0.225 ± 0.11.

Turning to K50L, the abundance fitness was -0.379 ± 0.099. In the case of K50S, the abundance fitness was -0.179 ± 0.086. For the variant K50N, the abundance fitness was -0.1 ± 0.17. On to K50Y, for which the abundance fitness is -0.318 ± 0.3. The value for V35N was -0.254 ± 0.16; that for V35K was -0.076 ± 0.1. Turning to V35E, the abundance fitness was -0.076 ± 0.078. In the case of V35L it was -0.234 ± 0.097; in that of S10R, 0.003 ± 0.076; in that of S10Y, -0.328 ± 0.16.

In the case of Q18S, the abundance fitness was -0.104 ± 0.082. In the case of Q18D it was 0.101 ± 0.13. In the case of Q18N, the abundance fitness was 0.097 ± 0.12. In the case of Q18K it was 0.133 ± 0.13.
